Key:
[1] = substrate: C=C1CCC[C@@]2(C)CCC3=C(C)CC[C@@H](C[C@H]12)C3(C)C; assay: Kinetic evaluation of taxadiene isomers, average of recombinant and T. media microsomes (FIG. 4); assay type: biochemical, Taxus; conditions: other: average of recombinant (Sf9) and T. media microsomes; substrate 1 to 500 μM
Experimental: (§1) Taxa-4(20),11(12)-diene (◯) and taxa-4(5),11(12)-diene (●) were evaluated with microsomes from S. formgiperda cells enriched with 50 pmol recombinant taxoid 5α-hydroxylase (A), and with microsomes from T. media suspension cells containing about 50 pmol of total native cytochrome P450 (B). Substrate Concentration range was varied from 1 to 500 μM in all cases.

[2] = substrate: [H][C@]12CCC(C)=C(CC[C@]3(C)CCC=C(C)[C@@]3([H])C1)C2(C)C; assay: as above; assay type: biochemical, Taxus; conditions: other: average of recombinant (Sf9) and T. media microsomes; substrate 1 to 500 μM
Experimental: as §1

[3] = substrate: C=C1CCC[C@@]2(C)CCC3=C(C)CC[C@@H](C[C@H]12)C3(C)C; assay: Kinetic evaluation with Sf9 microsomes enriched in recombinant 5α-hydroxylase (radio-HPLC, Michaelis-Menten); assay type: biochemical, Taxus cuspidata; conditions: other: Sf9 microsomes, recombinant enzyme, 200 μM NADPH plus regenerating system; pH 7.5
Experimental: (§2) Kinetic constants for both isomers were next evaluated (at a saturating 200 μM concentration of NADPH plus regenerating system; Shimada and Yamazai, Meth. Mol. Biol., 107:85-93, 1998). The isolated microsomes were resuspended in 50 mM Hepes, pH 7.5, containing 1 mM DTT and 5% (v/v) glycerol, and the 1 ml reactions (˜600 μg protein, 50 μM substrate dissolved in DMSO, and the requisite cofactors (e.g., NADPH plus regenerating system) were run as described previously, with the identical protocols for product analysis (Jennewein et al., Proc. Natl. Acad. Sci. USA, 98:13595-13600, 2001). DMSO was without influence on the reaction. For kinetic evaluation, following the establishment of linear reaction conditions in protein concentration and time, the response to substrate concentration was plotted by the Michaelis-Menten method (Sigmaplot 7.0) using the calibrated radio-HPLC protocol for product determination Data from three independent experiments were pooled and the line of best fit taken (R^2>0.99).

[4] = substrate: [H][C@]12CCC(C)=C(CC[C@]3(C)CCC=C(C)[C@@]3([H])C1)C2(C)C; assay: as above; assay type: biochemical, Taxus cuspidata; conditions: other: Sf9 microsomes, recombinant enzyme, 200 μM NADPH plus regenerating system; pH 7.5
Experimental: as §2

Protein | Km [1] | Km [2] | Km [3] | Km [4]
taxoid 5α-hydroxylase (Taxus cuspidata) (protein) MDALYKSTVAKFNEVTQLDCSTESFSIALSAIAGILLLLLLFRSKRHSSLKLPPGKLGIPFIGESFIFLRALRSNSLEQFFDERVKKFGLVFKTSLIGHPTVVLCGPAGNRLILSNEEKLVQMSWPAQFMKLMGENSVATRRGEDHIVMRSALAGFFGPGALQSYIGKMNTEIQSHINEKWKGKDEVNVLPLVRELVFNISAILFFNIYDKQEQDRLHKLLETILVGSFALPIDLPGFGFHRALQGRAKLNKIMLSLIKKRKEDLQSGSATATQDLLSVLLTFRDDKGTPLTNDEILDNFSSLLHASYDTTTSPMALIFKLLSSNPECYQKVVQEQLEILSNKEEGEEITWKDLKAMKYTWQVAQETLRMFPPVFGTFRKAITDIQYDGYTIPKGWKLLWTTYSTHPKDLYFNEPEKFMPSRFDQEGKHVAPYTFLPFGGGQRSCVGWEFSKMEILLFVHHFVKTFSSYTPVDPDEKISGDPLPPLPSKGFSIKLFPRP | 21.5 µM | 36 µM |  | 
recombinant taxoid 5α-hydroxylase (clone S1) (Taxus cuspidata) (protein, the S1 ORF was amplified using Pfu DNA polymerase and gene-specific primers containing a BamHI site immediately upstream of the start codon; made in house; host or cells: Spodoptera frugiperda Sf9 cells (baculovirus, pFastBac1); microsomal membranes) MDALYKSTVAKFNEVTQLDCSTESFSIALSAIAGILLLLLLFRSKRHSSLKLPPGKLGIPFIGESFIFLRALRSNSLEQFFDERVKKFGLVFKTSLIGHPTVVLCGPAGNRLILSNEEKLVQMSWPAQFMKLMGENSVATRRGEDHIVMRSALAGFFGPGALQSYIGKMNTEIQSHINEKWKGKDEVNVLPLVRELVFNISAILFFNIYDKQEQDRLHKLLETILVGSFALPIDLPGFGFHRALQGRAKLNKIMLSLIKKRKEDLQSGSATATQDLLSVLLTFRDDKGTPLTNDEILDNFSSLLHASYDTTTSPMALIFKLLSSNPECYQKVVQEQLEILSNKEEGEEITWKDLKAMKYTWQVAQETLRMFPPVFGTFRKAITDIQYDGYTIPKGWKLLWTTYSTHPKDLYFNEPEKFMPSRFDQEGKHVAPYTFLPFGGGQRSCVGWEFSKMEILLFVHHFVKTFSSYTPVDPDEKISGDPLPPLPSKGFSIKLFPETIVN |  |  | 16 ± 3.2 µM | 24 ± 2.5 µM

Source: patent US7402417B2, “P450 oxygenases and methods of use” (Washington State University Research Foundation, priority 2003, dated 2008)
